T1: human 5T4-His protein (human, UniProt Q13641 32-355)
T1 construct: also called recombinant 5T4 protein (human 5T4-his tag); human 5T4 protein; not shown: His tag
T1 sequence (looked up): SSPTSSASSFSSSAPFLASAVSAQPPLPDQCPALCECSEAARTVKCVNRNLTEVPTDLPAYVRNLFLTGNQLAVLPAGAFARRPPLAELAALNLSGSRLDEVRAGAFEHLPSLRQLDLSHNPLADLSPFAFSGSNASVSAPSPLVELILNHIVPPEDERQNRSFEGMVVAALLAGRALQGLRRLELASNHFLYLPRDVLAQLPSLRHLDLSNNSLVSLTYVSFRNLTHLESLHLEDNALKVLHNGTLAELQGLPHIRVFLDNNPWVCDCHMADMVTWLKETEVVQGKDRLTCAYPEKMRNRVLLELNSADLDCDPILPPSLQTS

B1: 393E9_hVH2_hVL1 (antibody, V domains shown)
VH: EVQLVESGGGLIQPGGSLRLSCAASGFTFTDYYMSWVRQPPGKGLEWVGFIRNKGNGYTTENSASVKGRFTISRDNSKSTLYLQMNSLRAEDTAVYYCARYRGNPHYAMDYWGQGTLVTVSS
VL: DIVLTQSPDSLAVSLGERATINCRASESVEFYGTSFLQWYQQKPGQPPKLLIYGASNVESGVPDRFSGSGSGTDFTLTISSLQAEDIAVYFCQQSRKVPSTFGGGTKVEIK
notes: humanized
B2: 393E9_hVH1_hVL4 (antibody, V domains shown)
VH: B1 VH with I12V, P40A
VL: DIVLTQSPLSLPVTPGEPASISCRASESVEFYGTSFLQWYLQKPGQSPQLLIYGASNVESGVPDRFSGSGSGTDFTLKISRVEAEDIGVYFCQQSRKVPSTFGGGTKVEIK
notes: humanized
B3: 393E9_hVH5_hVL3 (antibody, V domains shown)
VH: B1 VH with I12V, G16R, A23T, P40A, T80I, R89K, A90T
VL: DIQLTQSPSSLSASVGDRVTITCRASESVEFYGTSFLQWYQQKPGKAPKLLIYGASNVESGVPSRFSGSGSGTDFTLTISSLQPEDIATYFCQQSRKVPSTFGGGTKVEIK
notes: humanized; also called Hu393E9-53
B4: 393E9_hVH4_hVL2 (antibody, V domains shown)
VH: B1 VH with I12V, P40A, T80S, R89K, A90T
VL: EIVLTQSPATLSVSPGERATLSCRASESVEFYGTSFLQWYQQKPGQAPRLLIYGASNVESGIPARFSGSGSGTEFTLTISSLQSEDIAVYFCQQSRKVPSTFGGGTKVEIK
notes: humanized
B5: 393E9_hVH3_hVL3 (antibody, V domains shown)
VH: B1 VH with E1Q, L11V, I12V, P40A
VL: B3 VL
notes: humanized
B6: 393E9_hVH6_hVL3 (antibody, V domains shown)
VH: B1 VH with I12V, P40A, S77A, T80S
VL: B3 VL
notes: humanized
B7: 393E9_hVH5_hVL4 (antibody, V domains shown)
VH: B1 VH with I12V, G16R, A23T, P40A, T80I, R89K, A90T
VL: B2 VL
notes: humanized
B8: 393E9_hVH3_hVL1 (antibody, V domains shown)
VH: B1 VH with E1Q, L11V, I12V, P40A
VL: B1 VL
notes: humanized
B9: 393E9_hVH1_hVL5 (antibody, V domains shown)
VH: B1 VH with I12V, P40A
VL: B4 VL with A9G, V13L, A64D, E74D, S81R, Q83E, S84P
notes: humanized
B10: 393E9_hVH2_hVL5 (antibody, V domains shown)
VH: B1 VH
VL: B4 VL with A9G, V13L, A64D, E74D, S81R, Q83E, S84P
notes: humanized
B11: 393E9_hVH4_hVL3 (antibody, V domains shown)
VH: B1 VH with I12V, P40A, T80S, R89K, A90T
VL: B3 VL
notes: humanized
B12: 393E9_hVH4_hVL5 (antibody, V domains shown)
VH: B1 VH with I12V, P40A, T80S, R89K, A90T
VL: B4 VL with A9G, V13L, A64D, E74D, S81R, Q83E, S84P
notes: humanized; also called Hu393E9-45
B13: 393E9_hVH6_hVL2 (antibody, V domains shown)
VH: B1 VH with I12V, P40A, S77A, T80S
VL: B4 VL
notes: humanized; also called Hu393E9-62
B14: 393E9_hVH3_hVL5 (antibody, V domains shown)
VH: B1 VH with E1Q, L11V, I12V, P40A
VL: B4 VL with A9G, V13L, A64D, E74D, S81R, Q83E, S84P
notes: humanized
B15: 393E9_hVH2_hVL2 (antibody, V domains shown)
VH: B1 VH
VL: B4 VL
notes: humanized
B16: 393E9_hVH2_hVL3 (antibody, V domains shown)
VH: B1 VH
VL: B3 VL
notes: humanized
B17: 393E9_hVH6_hVL5 (antibody, V domains shown)
VH: B1 VH with I12V, P40A, S77A, T80S
VL: B4 VL with A9G, V13L, A64D, E74D, S81R, Q83E, S84P
notes: humanized
B18: 393E9_hVH2_hVL4 (antibody, V domains shown)
VH: B1 VH
VL: B2 VL
notes: humanized
B19: 393E9_hVH5_hVL5 (antibody, V domains shown)
VH: B1 VH with I12V, G16R, A23T, P40A, T80I, R89K, A90T
VL: B4 VL with A9G, V13L, A64D, E74D, S81R, Q83E, S84P
notes: humanized
B20: 393E9_hVH3_hVL4 (antibody, V domains shown)
VH: B1 VH with E1Q, L11V, I12V, P40A
VL: B2 VL
notes: humanized
B21: 393E9_hVH6_hVL4 (antibody, V domains shown)
VH: B1 VH with I12V, P40A, S77A, T80S
VL: B2 VL
notes: humanized
B22: Hu286B4-1 (antibody, V domains shown)
VH: EVQLQESGPGLVKPSDTLSLTCAVSGYSISNNYYWNWIRQPPGKGLEWIGYITYDGSNNYNPSLKNRVTMSRDTSKNQFSLKLSSVTAVDTAVYYCARGGGQLRFDYWGQGTTVTVSS
VL: DIQMTQSPSSLSASVGDRVTITCKASQSVSNEVTWYQQKPGKAPKLLIYYASNRYTGVPDRFSGSGSGTDFTFTISSLQPEDIATYYCQQDYSSPWTFGGGTKVEIK
notes: humanized

Data on 22 molecules can be found in patent US20250154277A1 (CONCEPT TO MEDICINE BIOTECH, published 2025).

By Kd is commonly meant the equilibrium constant for the complex coming apart. By koff is commonly meant a measure of how fast the partners let go of each other. Usually kon stands for the rate constant with which the complex forms. A word on the EC50: it is the midpoint of the concentration-response curve.

Residue numbers refer to the chain shown, from its start.

The first assay deals with T1, human 5T4-His protein. Briefly: SPR Biacore, Protein A capture. On the procedure:
The binding of the 393E9 humanized antibodies to recombinant 5T4 protein (human 5T4-his tag) was tested with Biacore using a capture method. The mAbs were captured using Protein A chip. A serial dilution of human 5T4-his tag protein was injected over captured antibody for 3 mins at a flow rate of 30 μl/min. The antigen was allowed to dissociate for 280-800 s. All the experiments were carried out on a Biacore T200. Data analysis was carried out using the Biacore T200 evaluation software.
On to B1, for which the dissociation constant (Kd) worked out at 0.547 nM, the koff was found to be 0.000104 s⁻¹ and the kon worked out at 190000 M⁻¹ s⁻¹.
Molecule B2 displayed a Kd of 0.599 nM, a dissociation rate constant (koff) of 0.000119 s⁻¹ and a kon of 199000 M⁻¹ s⁻¹.
For B3, in that order: 0.7 nM, 0.000119 s⁻¹ and 170000 M⁻¹ s⁻¹.
For B4, in that order: 0.603 nM, 0.000123 s⁻¹ and 204000 M⁻¹ s⁻¹.
As to B5, binding was characterised by a dissociation constant (Kd) of 0.574 nM, the koff stood at 0.000111 s⁻¹ and the association rate constant (kon) is 193000 M⁻¹ s⁻¹.
Molecule B6 came in with a dissociation constant (Kd) of 0.691 nM, a koff of 0.000124 s⁻¹ and a kon of 179000 M⁻¹ s⁻¹.
In the same order, the values of B7 are 0.679 nM, 0.000125 s⁻¹ and 184000 M⁻¹ s⁻¹.
In the case of B8, binding was characterised by a dissociation constant (Kd) of 0.506 nM, the koff is 0.000108 s⁻¹ and the on-rate (kon) is 213000 M⁻¹ s⁻¹.
Take B9: the Kd worked out at 0.515 nM, the koff was 0.000112 s⁻¹ and the kon worked out at 217000 M⁻¹ s⁻¹.
In the same order, the values of B10 are 0.56 nM, 0.000122 s⁻¹ and 217000 M⁻¹ s⁻¹.
B11: the dissociation constant Kd turned out to be 0.706 nM, the koff stood at 0.000128 s⁻¹ and the kon came to 181000 M⁻¹ s⁻¹.
The molecule B12 gave a Kd of 0.595 nM, a koff of 0.000129 s⁻¹ and an association rate constant (kon) of 217000 M⁻¹ s⁻¹.
In the same order, the values of B13 are 0.687 nM, 0.000137 s⁻¹ and 199000 M⁻¹ s⁻¹.
For B14, in that order: 0.502 nM, 0.00012 s⁻¹ and 238000 M⁻¹ s⁻¹.
For B15, the Kd was 0.594 nM, the koff is 0.00012 s⁻¹ and the kon was determined as 201000 M⁻¹ s⁻¹.
For B16, in that order: 0.684 nM, 0.00012 s⁻¹ and 174000 M⁻¹ s⁻¹.
In the same order, the values of B17 are 0.574 nM, 0.000122 s⁻¹ and 212000 M⁻¹ s⁻¹.
Take B18: the Kd is 0.65 nM, the koff was found to be 0.000127 s⁻¹ and the kon was 195000 M⁻¹ s⁻¹.
For B19, in that order: 0.598 nM, 0.000121 s⁻¹ and 202000 M⁻¹ s⁻¹.
With B20, the Kd worked out at 0.573 nM, the koff was 0.000123 s⁻¹ and the kon amounted to 215000 M⁻¹ s⁻¹.

Another assay deals with T1, human 5T4-His protein. Kind of assay: ELISA, coated 5T4-His. On the procedure:
To evaluate the binding activity of 393E9 humanized antibodies to human 5T4, the 393E9 chimeric antibody (393E9-C) along with 393E9 humanized mAbs were subjected to ELISA test.
Briefly, microtiter plates were coated with human 5T4-His protein at 1 μg/ml in PBS, 100 μl/well at 4° C. overnight, then blocked with 150 μl/well of 1% BSA. 4-fold dilutions of antibodies starting from 20 nM were added to each well and incubated for 1 hour at 37° C. The plates were washed with PBS/Tween and then incubated with Goat Anti-Human IgG-HRP for 30 mins at 37° C. After washing, the plates were developed with TMB substrate and analyzed by spectrophotometer at OD 450 nm. As shown in FIG. 12 and Table 9, most of the humanized antibodies bound to human 5T4 with high activity.
Molecule B1 displayed an EC50 of 0.17 nM.
Still for that read-out and setting: with B2 the figure was 0.13 nM; with B3, 0.12 nM; with B4, 0.12 nM.
For B5, it took 0.14 nM to reach a half-maximal effect (EC50).
Consider B6, for which the EC50 turned out to be 0.052 nM.
With B7, the EC50 was 0.17 nM.
Consider B8, for which the EC50 was 0.16 nM.
The same measure, in the same setting: the result for B9 reads 0.13 nM.
In the case of B21, the EC50 was determined as 0.14 nM.
On the same count and under the same terms, the result for B10 reads 0.11 nM.
The same measure, in the same setting: the result for B11 reads 0.13 nM; that for B12, 0.22 nM; that for B13, 0.11 nM.
The same measure, in the same setting: the result for B14 reads 0.12 nM; that for B15, 0.12 nM.
As for B16, the EC50 worked out at 0.11 nM.
B17 gave an EC50 of 0.19 nM.
Same read-out and setting: with B18 the figure was 0.12 nM.
The same measure, in the same setting: with B19 the figure was 0.11 nM; with B20, 0.095 nM.

Another assay concerns the target T1, human 5T4-His protein. Briefly: ELISA, coated 5T4-His. The source holds these as a separate data set. The procedure: To evaluate the binding activity of clones, the 286B4 chimeric antibody along with 286B4 humanized mAbs were subjected to ELISA test.
Briefly, microtiter plates were coated with human 5T4-His protein at 1 μg/ml in PBS, 100 μl/well at 4° C. overnight, then blocked with 150 μl/well of 1% BSA. 4-fold dilutions of tested antibodies starting from 20 nM were added to each well and incubated for 1 hour at 37° C. The plates were washed with PBS/Tween and then incubated with Goat Anti-Human IgG-HRP for 30 mins at 37° C. After washing, the plates were developed with TMB substrate and analyzed by spectrophotometer at OD 450 nm. As shown in FIG. 16 and Table 15, most of the humanized clones bound to human 5T4 with high potency.
(ELISA stands for enzyme-linked immunosorbent assay.)
Molecule B22 yielded an EC50 of 3.81 nM.
